This is an account of results in PMC6447637.

The target of test [1] is NaV1.4 CTerm Short (residues 1599–1754), freed of CaM for ITC (human) (UniProt P35499). Kind of test: ITC; Ca2+-saturating: CTerm (2–25 µM) in the sample cell, CaM, CaM12 or CaM34 (30–1000 µM) as titrant; 20 mM MOPS, 150 mM NaCl, 1 mM MgCl2, 50 µM EGTA with 1 mM CaCl2; VP-ITC, single binding site fit, one replicate. For orientation: In ITC the heat of successive injections is recorded.

Test [2] concerns the target NaV1.4 CTerm Long (residues 1599–1764), freed of CaM for ITC (human) (UniProt P35499). Described as above.
The target in test [3] is NaV1.5 CTerm Long (not stated (human or rat cDNA cloned)). Described as above.
For test [4] the target is unchanged. Described as above. This is another data set of the same source.
Test [5] shares this target. Kind of test: ITC; Ca2+-free: CTerm (2–25 µM) in the sample cell, CaM (30–1000 µM) as titrant; 20 mM MOPS, 150 mM NaCl, 1 mM MgCl2, 50 µM EGTA; VP-ITC, single binding site fit, one replicate.

With “CaM12 (D20A, D56A; N lobe Ca^2+ binding disabled) (natural protein)”, the Kd in test [1] came to 0.156 µM; in test [2], 0.154 µM; in test [3], 3.6 µM.
Taken in the same sequence, the figures for “CaM34 (D93A, D129A; C lobe Ca^2+ binding disabled) (natural protein)” were 0.282 µM, 0.121 µM and 0.09 µM.
As for “calmodulin (full-length mammalian calmodulin, R. norvegicus CALM2) (from UniProt P0DP30 1-149) (natural protein)”, the Kd in test [3] worked out at 0.089 µM; in test [4] it was 0.07 µM; in test [5] it was 0.048 µM.

Usually Kd stands for a measure of binding affinity in units of concentration.
